Target: RXRa (Homo sapiens, UniProt P19793)
Assay: no ligand; PBM; 180 nM; PBS pH 7.4, 2% milk, 0.02% Triton X-100, 1 mM DTT, BSA, 0.4 mg/ml salmon testes DNA
Conditions: tags: His cleaved; chain copies: 2; label: surface-attached array probe

Chain of RXRa (P19793 whole entry): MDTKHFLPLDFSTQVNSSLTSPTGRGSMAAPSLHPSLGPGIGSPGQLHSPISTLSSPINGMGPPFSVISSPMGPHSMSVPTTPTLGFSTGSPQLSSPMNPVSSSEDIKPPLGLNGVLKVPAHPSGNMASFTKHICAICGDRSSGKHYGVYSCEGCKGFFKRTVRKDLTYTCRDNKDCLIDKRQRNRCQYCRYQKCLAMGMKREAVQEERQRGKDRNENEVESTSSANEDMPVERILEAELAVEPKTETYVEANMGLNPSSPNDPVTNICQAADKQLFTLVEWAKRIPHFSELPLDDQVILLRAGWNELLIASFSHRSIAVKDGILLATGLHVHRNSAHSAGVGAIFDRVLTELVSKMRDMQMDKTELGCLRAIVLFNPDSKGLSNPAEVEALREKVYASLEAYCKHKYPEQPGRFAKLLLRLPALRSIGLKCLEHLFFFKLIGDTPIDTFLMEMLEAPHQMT

Row | Binder | binding signal
1 | NRC3_random_hg19_301_o1 (dsDNA) DNA 1: GCGAGAACAGACTAACACACACACACACACACACACGCGATTGACAGCGTAGAATGAAGG DNA 2: CCTTCATTCTACGCTGTCAATCGCGTGTGTGTGTGTGTGTGTGTGTTAGTCTGTTCTCGC | 0.4 PBM z-score against 500 random probes
2 | NRC3_random_hg19_366_o1 (dsDNA) DNA 1: GCACTACTACTGCTGTTGAGAAACCTGCATTGTGGCGCGATTGACAGCGTAGAATGAAGG DNA 2: CCTTCATTCTACGCTGTCAATCGCGCCACAATGCAGGTTTCTCAACAGCAGTAGTAGTGC | -0.56 PBM z-score against 500 random probes
3 | NRC3_wobSeed39_DR1_G10A_o1 (dsDNA) DNA 1: GCCGAACTAAGTCAAAGGACAGTGAAAGGCGACGTAGCGATTGACAGCGTAGAATGAAGG DNA 2: CCTTCATTCTACGCTGTCAATCGCTACGTCGCCTTTCACTGTCCTTTGACTTAGTTCGGC | 0.22 PBM z-score against 500 random probes
4 | NRC3_random_hg19_240_o1 (dsDNA) DNA 1: GCGACCATCTCCACACTGCACGATGATGAGATCCTGGCGATTGACAGCGTAGAATGAAGG DNA 2: CCTTCATTCTACGCTGTCAATCGCCAGGATCTCATCATCGTGCAGTGTGGAGATGGTCGC | 0.1 PBM z-score against 500 random probes
5 | NRC3_random_hg19_292_o1 (dsDNA) DNA 1: GCCAAGACCCTAAGGAACCACTGTGTGGGATGTCAGGCGATTGACAGCGTAGAATGAAGG DNA 2: CCTTCATTCTACGCTGTCAATCGCCTGACATCCCACACAGTGGTTCCTTAGGGTCTTGGC | 0.44 PBM z-score against 500 random probes
6 | NRC3_wobSeed27_DR1_G17T_o1 (dsDNA) DNA 1: GCACTCGGAGGACAAATGTCAGAGCTACGCCAGTGAGCGATTGACAGCGTAGAATGAAGG DNA 2: CCTTCATTCTACGCTGTCAATCGCTCACTGGCGTAGCTCTGACATTTGTCCTCCGAGTGC | 0.08 PBM z-score against 500 random probes
7 | NRC3_random_hg19_376_o1 (dsDNA) DNA 1: GCTTCCTCTTCCTCTGTGCCTGTGTAGCCTCCATCCGCGATTGACAGCGTAGAATGAAGG DNA 2: CCTTCATTCTACGCTGTCAATCGCGGATGGAGGCTACACAGGCACAGAGGAAGAGGAAGC | -0.77 PBM z-score against 500 random probes
8 | NRC3_random_hg19_498_o1 (dsDNA) DNA 1: GCGACCACAGGTATAGTGTGCTGGACTATGTTCCAGGCGATTGACAGCGTAGAATGAAGG DNA 2: CCTTCATTCTACGCTGTCAATCGCCTGGAACATAGTCCAGCACACTATACCTGTGGTCGC | -0.31 PBM z-score against 500 random probes
9 | NRC3_random_hg19_236_o1 (dsDNA) DNA 1: GCGCCTAGCACTTGTGTTGACCATTCATTCAGTGCTGCGATTGACAGCGTAGAATGAAGG DNA 2: CCTTCATTCTACGCTGTCAATCGCAGCACTGAATGAATGGTCAACACAAGTGCTAGGCGC | -0.35 PBM z-score against 500 random probes
10 | NRC3_random_hg19_34_o1 (dsDNA) DNA 1: GCATGATGCCTCCTTGGAGAAGTCCTGCATTCATCCGCGATTGACAGCGTAGAATGAAGG DNA 2: CCTTCATTCTACGCTGTCAATCGCGGATGAATGCAGGACTTCTCCAAGGAGGCATCATGC | -0.46 PBM z-score against 500 random probes
11 | NRC3_wobSeed90_DR3_T12A_o1 (dsDNA) DNA 1: GCCATACAGGGACAGCTAGGCCAGAGTAGGGACGGCGCGATTGACAGCGTAGAATGAAGG DNA 2: CCTTCATTCTACGCTGTCAATCGCGCCGTCCCTACTCTGGCCTAGCTGTCCCTGTATGGC | 0.2 PBM z-score against 500 random probes
12 | NRC3_random_hg19_160_o1 (dsDNA) DNA 1: GCATCCCTGCAATGGCCTGCAAAGTTACAGGTTGCAGCGATTGACAGCGTAGAATGAAGG DNA 2: CCTTCATTCTACGCTGTCAATCGCTGCAACCTGTAACTTTGCAGGCCATTGCAGGGATGC | -0.41 PBM z-score against 500 random probes
13 | NRC3_random_hg19_89_o1 (dsDNA) DNA 1: GCCAAGATGAATCAGAAGCATGCCATCCGAATTCCAGCGATTGACAGCGTAGAATGAAGG DNA 2: CCTTCATTCTACGCTGTCAATCGCTGGAATTCGGATGGCATGCTTCTGATTCATCTTGGC | -0 PBM z-score against 500 random probes
14 | NRC3_wobSeed18_DR0_G9C_o1 (dsDNA) DNA 1: GCGATACACGGTCAAGGCCAGAGTACGCGTATTGATGCGATTGACAGCGTAGAATGAAGG DNA 2: CCTTCATTCTACGCTGTCAATCGCATCAATACGCGTACTCTGGCCTTGACCGTGTATCGC | 0.39 PBM z-score against 500 random probes
15 | NRC3_wobSeed58_DR2_A9T_o1 (dsDNA) DNA 1: GCATCGAATGGTCGTGAGGTGAGTATACAGAAAGGCGCGATTGACAGCGTAGAATGAAGG DNA 2: CCTTCATTCTACGCTGTCAATCGCGCCTTTCTGTATACTCACCTCACGACCATTCGATGC | 0.34 PBM z-score against 500 random probes
16 | NRC3_random_hg19_2_o1 (dsDNA) DNA 1: GCGTAACAAGAACAAGGCCATACTTTCATGCATCTAGCGATTGACAGCGTAGAATGAAGG DNA 2: CCTTCATTCTACGCTGTCAATCGCTAGATGCATGAAAGTATGGCCTTGTTCTTGTTACGC | 0.08 PBM z-score against 500 random probes
17 | NRC3_random_hg19_79_o1 (dsDNA) DNA 1: GCCAGTGTCCTCCTGAGAATTGGTTGTGTTGGGCAGGCGATTGACAGCGTAGAATGAAGG DNA 2: CCTTCATTCTACGCTGTCAATCGCCTGCCCAACACAACCAATTCTCAGGAGGACACTGGC | -0.79 PBM z-score against 500 random probes
18 | NRC3_random_hg19_365_o1 (dsDNA) DNA 1: GCAGTAGACACAGGGTTTCACCGTGTTGGCCAGGATGCGATTGACAGCGTAGAATGAAGG DNA 2: CCTTCATTCTACGCTGTCAATCGCATCCTGGCCAACACGGTGAAACCCTGTGTCTACTGC | 0.03 PBM z-score against 500 random probes
19 | NRC3_wobSeed44_DR1_G10A_o1 (dsDNA) DNA 1: GCTGAATGAAGTTAAAGATCAGGGAACGTGGCGTCGGCGATTGACAGCGTAGAATGAAGG DNA 2: CCTTCATTCTACGCTGTCAATCGCCGACGCCACGTTCCCTGATCTTTAACTTCATTCAGC | 0.44 PBM z-score against 500 random probes
20 | NRC3_wobSeed44_DR1_G10C_o1 (dsDNA) DNA 1: GCTGAATGACGTTAAAGATCAGGGAACGTGGCGTCGGCGATTGACAGCGTAGAATGAAGG DNA 2: CCTTCATTCTACGCTGTCAATCGCCGACGCCACGTTCCCTGATCTTTAACGTCATTCAGC | 0.4 PBM z-score against 500 random probes
21 | NRC3_wobSeed100_DR4_A24C_o1 (dsDNA) DNA 1: GCCCTACTGGGCCACGAAAGGTCCTTGATTCAGTGAGCGATTGACAGCGTAGAATGAAGG DNA 2: CCTTCATTCTACGCTGTCAATCGCTCACTGAATCAAGGACCTTTCGTGGCCCAGTAGGGC | 0.26 PBM z-score against 500 random probes
22 | NRC3_wobSeed30_DR1_C20G_o1 (dsDNA) DNA 1: GCACTAGCAGGCCAAGGGTGACTCAAGATTAGTCCGGCGATTGACAGCGTAGAATGAAGG DNA 2: CCTTCATTCTACGCTGTCAATCGCCGGACTAATCTTGAGTCACCCTTGGCCTGCTAGTGC | 0.36 PBM z-score against 500 random probes
23 | NRC3_wobSeed76_DR3_C22A_o1 (dsDNA) DNA 1: GCCCTACTGGGCCAAAAAGGTAATTGATGCCGATAAGCGATTGACAGCGTAGAATGAAGG DNA 2: CCTTCATTCTACGCTGTCAATCGCTTATCGGCATCAATTACCTTTTTGGCCCAGTAGGGC | 0.01 PBM z-score against 500 random probes
24 | NRC3_wobSeed82_DR3_A9C_o1 (dsDNA) DNA 1: GCATCGAACGGTCGACGAGGTGAGTATACACCGTTTGCGATTGACAGCGTAGAATGAAGG DNA 2: CCTTCATTCTACGCTGTCAATCGCAAACGGTGTATACTCACCTCGTCGACCGTTCGATGC | 0.44 PBM z-score against 500 random probes
